7 molecules from patent US11840557B2, “Wnt7 variants capable of activating g-protein coupled receptor (Gpr)124/Reck/frizzled/lipoprotein receptor-related protein (LRP)-mediated Wnt signaling” (UNIVERSITÉ LIBRE DE BRUXELLES, priority 2018, dated 2023) can be followed below.

For one assay, the system named is Reck-CK-Fc. Kind of assay: Isothermal titration calorimetry (ITC) of synthetic Wnt linker peptides into recombinant Reck-CK-Fc. In kind it is binding. Here is the method:
Reck-CK-Fc fusion proteins were recovered in serum-free FreeStyle 293 Expression Medium (Thermo Fisher Scientific, Waltham, Mass.) from the supernatant of HEK293T cell cultures 72 h post transfection with Lipofectamine 2000 (Life Technologies, Carlsbad, Calif.). After collection, the supernatants were either concentrated 50 times by centrifugation (GE Healthcare, Little Chalfont, UK) or submitted to Protein G affinity purification (Protein G Sepharose 4 Fast Flow, Sigma-Aldrich, St. Louis, Mo.). Protein purity was assessed using Coomassie blue staining after PAGE. Synthetic Wnt linker peptides were obtained from Chinapeptide Co., Ltd at purities over 90%.
ITC titrations were carried out on an Affinity ITC (TA Instruments). Prior to the measurement, Reck-CK-Fc and all Reck-CK-Fc fusions were dialyzed to Tris-NaCl buffer (50 mM Tris pH8, 300 mM NaCl). In each case Wnt-derived peptides were prepared with buffer from the last step of protein dialysis. The samples were filtered and degassed before being examined in the calorimeter and the titrations were performed 25° C. All the experiments consisted of injection of constant volumes of 2 μL of titrant into the cell (200 μL) with a stirring rate of 75 rpm. Nominal sample concentrations were between 20 μM and 40 μM in the cell and 400 μM to 1.0 mM in the syringe. Actual sample concentrations were determined after dialysis or buffer exchange by measurement of their absorption at 280 nm or the BCA method. All data were analyzed using the MicroCal Origin ITC 7.0, and NanoAnalyze software packages.
For orientation: Isothermal titration calorimetry measures the heat released or taken up as one component is titrated into another.

The next assay addresses T1, HA-Reck (Homo sapiens, UniProt O95980).
T1 construct: expressed in transfected cells; host or cells: GPR124-/-;RECK-/- HEK293 (STF) cells, pCS2 / CMV promoter
T1 sequence (O95980 23-942): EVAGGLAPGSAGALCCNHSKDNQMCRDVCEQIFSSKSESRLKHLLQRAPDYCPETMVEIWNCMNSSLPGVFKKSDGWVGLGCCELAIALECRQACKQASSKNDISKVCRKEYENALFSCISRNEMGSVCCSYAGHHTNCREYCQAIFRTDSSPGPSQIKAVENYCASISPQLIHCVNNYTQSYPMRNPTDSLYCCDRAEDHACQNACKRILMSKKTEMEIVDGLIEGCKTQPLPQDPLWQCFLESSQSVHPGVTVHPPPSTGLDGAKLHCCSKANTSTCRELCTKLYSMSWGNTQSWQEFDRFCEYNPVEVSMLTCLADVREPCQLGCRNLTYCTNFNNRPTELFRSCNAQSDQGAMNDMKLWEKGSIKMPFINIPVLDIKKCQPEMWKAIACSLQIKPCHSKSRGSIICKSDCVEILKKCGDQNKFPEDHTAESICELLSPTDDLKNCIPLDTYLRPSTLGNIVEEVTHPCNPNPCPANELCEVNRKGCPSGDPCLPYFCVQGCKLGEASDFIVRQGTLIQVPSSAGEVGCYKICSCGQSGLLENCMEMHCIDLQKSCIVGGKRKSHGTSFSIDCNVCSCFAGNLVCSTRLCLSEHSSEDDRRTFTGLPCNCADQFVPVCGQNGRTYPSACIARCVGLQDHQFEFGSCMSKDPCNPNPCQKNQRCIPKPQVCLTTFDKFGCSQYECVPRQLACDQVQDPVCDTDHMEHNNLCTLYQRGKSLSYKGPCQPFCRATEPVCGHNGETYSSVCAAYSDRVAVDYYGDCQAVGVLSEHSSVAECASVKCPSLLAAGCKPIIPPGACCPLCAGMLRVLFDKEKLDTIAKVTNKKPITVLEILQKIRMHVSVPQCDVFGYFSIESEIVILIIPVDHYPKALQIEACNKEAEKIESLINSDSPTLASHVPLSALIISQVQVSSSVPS
Kind of assay: Proximity ligation assay (PLA), anti-V5/anti-HA, V5-tagged Wnt ligand and HA-Reck in GPR124−/−;RECK−/− cells. The format is cell-based. The following applies: GPR124−/−;RECK−/− cells co-expressing HA-Reck. Here is the method:
(§1) 1.7. Immunofluorescence and Proximity Ligation Assay Cells were grown in glass-coated chambers (IBIDI, Martinsried, Germany) and transfected after 24 h with Lipofectamine 2000 (Life Technologies, Carlsbad, Calif.). Cells were fixed with 4% paraformaldehyde for 10 min at room temperature (RT) 48 h post transfection. For immunofluorescence staining (IF), cells were blocked in 1% BSA-PBS for 30 min before being exposed to primary antibodies for 1 h at RT. After three PBS washes, cells were incubated with secondary antibodies for 1 h at RT. For anti-V5 staining of Wnt ligands, cells were additionally washes for 10 min in PBS 0.1% Tween 20 before incubation with the secondary antibody solution. For the proximity ligation assay (PLA) (Sigma-Aldrich, St. Louis, Mo.), cells were blocked for 30 min at 37° C. with the Blocking solution provided by the manufacturer before being incubated with the primary antibodies for 1 h at RT. Cells were washed three times and incubated with the PLA probes anti-rabbit PLUS and anti-mouse MINUS for 1 h at 37° C. After two PBS washes, cells were incubated with the Duolink Ligation solution for 30 min at 37° C. After two PBS washes, cells were incubated with the Duolink Amplification solution for 100 min at 37° C. The following antibodies were used: mouse monoclonal anti-V5 (R96025, Life Technologies, Carlsbad, Calif.) at 1:500 for IF and PLA, purified polyclonal rabbit anti-HA (H6908, St. Louis, Mo.) at 1:400 for IF and PLA and anti-mouse Alexa488-conjugated secondary antibody (Thermo Fisher Scientific, Waltham, Mass.) at 1:5000. Cells were stained for 2 min with Hoechst diluted to 10 μg ml-1 in PBS.
Cells and zebrafish embryos were imaged with an LSM710 confocal microscope and images were processed in ImageJ. Images of eye fusion phenotypes were taken on Leica M165 FC. Representations of brain vasculature were generated using Imaris software (BitPlane, Zurich, Switzerland). The percentage of PLA positive (PLA+) areas and DAPI positive (DAPI+) areas were calculated using ImageJ on images containing about 50 to 100 cells. The PLA+ area was measured after manually applying a fixed threshold. The DAPI+ area was measured after applying the “default” thresholding method in Image J.

Assay [1] has as its system plasma membrane of HEK293 cells. The experiment in a line: Anti-V5 immunostaining of transiently expressed V5-tagged Wnt ligands in non-permeabilized cells. The format is cell-based, human. Here is the method: as §1, with “After two PBS washes, cells were incubated with the Duolink Amplification solution for 100 min at 37° C. The following antibodies were used: mouse monoclonal anti-V5 (R96025, Life Technologies, Carlsbad, Calif.) at 1:500 for IF and PLA, purified polyclonal rabbit anti-HA (H6908, St. Louis, Mo.) at 1:400 for IF and PLA and anti-mouse Alexa488-conjugated secondary antibody (Thermo Fisher Scientific, Waltham, Mass.) at 1:5000. Cells were stained for 2 min with Hoechst diluted to 10 μg ml-1 in PBS.” left out
It was determined how Wnt7 is specifically recognized within this signaling module, a question inherently complicated by the ubiquitous expression of Frizzled receptors and their Lrp5/6 co-receptors in vertebrate cells. […]

Numbering of substitutions follows the chain as printed. Names and notes keep the numbering of the source. Ends that are not written are not given here.

For the molecule “pWnt3a: control equivalent linker peptide of Wnt3a (MVVEKHRESRGWVETLRPRYTYFKVPTER) [reference compound]”, the “binding to Reck-CK-Fc (ITC)” value with Reck-CK-Fc (25° C.) is listed as “no binding”.
For VEVVRASRLRQPTFLRIKQLRSYQKPMET [pWnt7b], the Kd on Reck-CK-Fc (25° C., Tris-NaCl buffer pH8, read-out: affinity of binding to Reck (ITC)) came out at 1.2 µM. The “Reck CK motifs required for binding (ITC with Reck-CK-Fc deletion variants)” value in the assay with Reck-CK-Fc (Reck-CK^ΔCK1-Fc to Reck-CK^ΔCK5-Fc) was “required Reck CK4 and CK5, but not CK1, CK2 and CK3”.

B1: Wnt7a^1-212: smaller NTD variant lacking the linker region (protein)
chain: LGASIICNKIPGLAPRQRAICQSRPDAIIVIGEGSQMGLDECQFQFRNGRWNCSALGERTVFGKELKVGSREAAFTYAIIAAGVAHAITAACTQGNLSDCGCDKEKQGQYHRDEGWKWGGCSADIRYGIGFAKVFVDAREIKQNARTLMNLHNNEAGRKILEENMKLECKCHGVSGSCTTK
modifications: left off: small tags and cut ends
notes: smaller NTD variant lacking the linker region
With B1, the “Reck binding (anti-V5/anti-HA PLA signal)” value (shortened to “Reck binding”) in the assay with HA-Reck is recorded as “did not bind Reck”.

B2: Wnt71-237: smaller NTD variant lacking the linker region (protein)
chain: LGASIICNKIPGLAPRQRAICQSRPDAIIVIGEGSQMGLDECQFQFRNGRWNCSALGERTVFGKELKVGSREAAFTYAIIAAGVAHAITAACTQGNLSDCGCDKEKQGQYHRDEGWKWGGCSADIRYGIGFAKVFVDAREIKQNARTLMNLHNNEAGRKILEENMKLECKCHGVSGSCTTKTCWTTLPQFRELGYVLKDKYNEAVH
modifications: left off: small tags and cut ends
notes: as for B1
Turning to B2, the “Reck binding” value with HA-Reck is given as “did not bind Reck”.

B3: Wnt7a-V5: V5-tagged Wnt7a ligand transiently expressed in cells (protein)
chain: LGASIICNKIPGLAPRQRAICQSRPDAIIVIGEGSQMGLDECQFQFRNGRWNCSALGERTVFGKELKVGSREAAFTYAIIAAGVAHAITAACTQGNLSDCGCDKEKQGQYHRDEGWKWGGCSADIRYGIGFAKVFVDAREIKQNARTLMNLHNNEAGRKILEENMKLECKCHGVSGSCTTKTCWTTLPQFRELGYVLKDKYNEAVHVEPVRASRNKRPTFLKIKKPLSYRKPMDTDLVYIEKSPNYCEEDPVTGSVGTQGRACNKTAPQASGCDLMCCGRGYNTHQYARVWQCNCKFHWCCYVKCNTCSERTEMYTCK
modifications: left off: small tags and cut ends
notes: V5-tagged Wnt7a ligand transiently expressed in cells
With B3, the “immunodetection at the plasma membrane” value in assay [1] (GPR124−/−;RECK−/− cells) is reported as “not at those of GPR124^−/−;RECK^−/− cells”; in assay [1] (WT, FZ1-10−/− and LRP5−/−;LRP6−/− cells), “could be immunodetected at the plasma membrane”.

B4: Wnt7a′: garbled label of a Wnt7a domain variant, probably the C-terminal domain alone (protein)
chain: B3 chain
B4: in the assay with HA-Reck, the “Reck binding” value is recorded as “did not”.

B5: Wnt7a^S206A: mutant Wnt7a incapable of being palmitoylated at Serine 206 (protein)
chain: B3 chain with S175A
modifications: left off: small tags and cut ends
For the molecule B5, the “Reck binding” value in the assay with HA-Reck was “bound Reck efficiently”.
